# Data as given in patent publication US20180346600A1 (AJOU UNIVERSITY INDUSTRY ACADEMIC COOPERATION FOUNDATION, published 2018).
# Changes are numbered by the printed parent chain. Names and notes keep the numbering of the source.
# T1: displayed FcCH3A, W-VT (K409W), on yeast cell surface (human, UniProt P0DOX5 227-449 = IgG part)
# T1 construct: EU 226 and 229 counted from the entry's start at EU 225; also called W-VT CH3A chain (yeast)
# T1 Fc: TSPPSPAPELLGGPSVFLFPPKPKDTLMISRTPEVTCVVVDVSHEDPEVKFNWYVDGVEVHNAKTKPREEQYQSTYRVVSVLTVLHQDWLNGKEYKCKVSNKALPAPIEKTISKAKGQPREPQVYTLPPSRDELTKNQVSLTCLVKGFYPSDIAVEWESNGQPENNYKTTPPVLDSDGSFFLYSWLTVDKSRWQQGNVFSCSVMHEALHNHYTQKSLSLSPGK
# T2: displayed FcCH3A, A109 (K370M/K409W), on yeast cell surface (human, UniProt P0DOX5 227-449 = IgG part)
# T2 construct: also called A109 CH3A chain (yeast)
# T2 Fc: T1 Fc with K146M
# T3: displayed FcCH3A, A108 (K370E/K409W), on yeast cell surface (human, UniProt P0DOX5 227-449 = IgG part)
# T3 construct: also called A108 CH3A chain (yeast)
# T3 Fc: T1 Fc with K146E
# T4: displayed FcCH3A, A146 (K370D/K409W), on yeast cell surface (human, UniProt P0DOX5 227-449 = IgG part)
# T4 construct: also called A146 CH3A chain (yeast)
# T4 Fc: T1 Fc with K146D
# T5: displayed FcCH3A, EW-RVT (K360E/K409W), on yeast cell surface (human, UniProt P0DOX5 227-449 = IgG part)
# T5 construct: also called EW-RVT CH3A chain (yeast)
# T5 Fc: T1 Fc with K136E
# T6: displayed FcCH3A, A107 (K370E/K409W), on yeast cell surface (human, UniProt P0DOX5 227-449 = IgG part)
# T6 construct: also called A107 CH3A chain (yeast)
# T6 Fc: T1 Fc with K146E
# T7: displayed FcCH3A, B121 (D399E/K409W), on yeast cell surface (human, UniProt P0DOX5 227-449 = IgG part)
# T7 construct: also called B121 CH3A chain (yeast)
# T7 Fc: T1 Fc with D175E
# B1: secreted FcCH3B, W-VT (D399V/F405T), from yeast (other)
# chain: T1 Fc with D175V, F181T, W185K
# notes: also called W-VT CH3B chain (yeast); not shown: flag-tag
# B2: secreted FcCH3B, A109 (E357M/S364W/D399V/F405T), from yeast (other)
# chain: T1 Fc with E133M, S140W, D175V, F181T, W185K
# notes: also called A109 CH3B chain (yeast); not shown: flag-tag
# B3: secreted FcCH3B, A108 (E357I/S364T/D399V/F405T), from yeast (other)
# chain: T1 Fc with E133I, S140T, D175V, F181T, W185K
# notes: also called A108 CH3B chain (yeast); not shown: flag-tag
# B4: secreted FcCH3B, A146 (E357M/D399V/F405T), from yeast (other)
# chain: T1 Fc with E133M, D175V, F181T, W185K
# notes: also called A146 CH3B chain (yeast); not shown: flag-tag
# B5: secreted FcCH3B, EW-RVT (Q347R/D399V/F405T), from yeast (other)
# chain: T1 Fc with Q123R, D175V, F181T, W185K
# notes: also called EW-RVT CH3B chain (yeast); not shown: flag-tag
# B6: secreted FcCH3B, A107 (E357N/D399V/F405T), from yeast (other)
# chain: T1 Fc with E133N, D175V, F181T, W185K
# notes: also called A107 CH3B chain (yeast); not shown: flag-tag
# B7: secreted FcCH3B, B121 (K392E/D399V/F405T), from yeast (other)
# chain: T1 Fc with K168E, D175V, F181T, W185K
# notes: also called B121 CH3B chain (yeast); not shown: flag-tag
# B8: FcCH3B, B212 (D399G/K392G/K409M) (other)
# chain: T1 Fc with S2C, S5C, Q73N, K168G, D175G, W185M
# notes: also called B212 CH3B chain
# B9: FcCH3B, A109 (E357M/S364W/D399V/F405T) (other)
# chain: T1 Fc with S2C, S5C, Q73N, E133M, S140W, D175V, F181T, W185K
# notes: also called A109 CH3B chain
# B10: FcCH3B, B135 (K392S/K409L/D399V/F405T) (other)
# chain: T1 Fc with S2C, S5C, Q73N, K168S, D175V, F181T, W185L
# notes: also called B135 CH3B chain
# B11: FcCH3B, B239 (D399S/K392G/K409M) (other)
# chain: T1 Fc with S2C, S5C, Q73N, K168G, D175S, W185M
# notes: also called B239 CH3B chain
# B12: FcCH3B, B256 (D399V/K392G/K409M) (other)
# chain: T1 Fc with S2C, S5C, Q73N, K168G, D175V, W185M
# notes: also called B256 CH3B chain
# B13: FcCH3B, A107 (E357N/D399V/F405T) (other)
# chain: T1 Fc with S2C, S5C, Q73N, E133N, D175V, F181T, W185K
# notes: also called A107 CH3B chain
# B14: FcCH3B, EW-RVT (Q347R/D399V/F405T) (other)
# chain: T1 Fc with S2C, S5C, Q73N, Q123R, D175V, F181T, W185K
# notes: also called EW-RVT CH3B chain
# B15: FcCH3B, B235 (D399C/K392G/K409M) (other)
# chain: T1 Fc with S2C, S5C, Q73N, K168G, D175C, W185M
# notes: also called B235 CH3B chain
# B16: FcCH3B, B240 (D399G/K392G/K409M) (other)
# chain: T1 Fc with S2C, S5C, Q73N, K168G, D175G, W185M
# notes: also called B240 CH3B chain
# B17: FcCH3B, A108 (E357I/S364T/D399V/F405T) (other)
# chain: T1 Fc with S2C, S5C, Q73N, E133I, S140T, D175V, F181T, W185K
# notes: also called A108 CH3B chain
# B18: FcCH3B, B168 (K392G/K409M/D399V/F405T) (other)
# chain: T1 Fc with S2C, S5C, Q73N, K168G, D175V, F181T, W185M
# notes: also called B168 CH3B chain
# B19: FcCH3B, B121 (K392E/D399V/F405T) (other)
# chain: T1 Fc with S2C, S5C, Q73N, K168E, D175V, F181T, W185K
# notes: also called B121 CH3B chain
# B20: FcCH3B, A146 (E357M/D399V/F405T) (other)
# chain: T1 Fc with S2C, S5C, Q73N, E133M, D175V, F181T, W185K
# notes: also called A146 CH3B chain
# B21: FcCH3B, B215 (D399W/K392G/K409M) (other)
# chain: T1 Fc with S2C, S5C, Q73N, K168G, D175W, W185M
# notes: also called B215 CH3B chain
# Legend:
# [1] = target: T1, displayed FcCH3A, W-VT (K409W), on …; assay: flow cytometry histogram (PE, FL2-H) of diploid yeast: Flag-tagged secreted FcCH3B held on displayed FcCH3A, anti-Flag mouse mAb and PE anti-mouse antibody
# Protocol: Specifically, the diploid in which the expression of the heterodimeric heavy chain constant region was induced was reacted with an antibody recognizing flag-tag included in the secreted FcCH3B (anti-Flag mouse mAb, F3165) (Sigma-Aldrich) and an antibody conjugated with PE (phycoerythrin conjugated anti-mouse mAb, sc-3738) (Santa Cruz biotechnology), and a signal of PE was analyzed by flow cytometry.
# [2] = target: T2, displayed FcCH3A, A109 (K370M/K409W), …; assay: flow cytometry of diploid yeast: MFI of Flag-tagged secreted FcCH3B held on displayed FcCH3A (anti-Flag mouse mAb and PE anti-mouse antibody), normalised to EW-RVT = 100 %
# [3] = target: T3, displayed FcCH3A, A108 (K370E/K409W), …; assay: as above
# [4] = target: T4, displayed FcCH3A, A146 (K370D/K409W), …; assay: as above
# [5] = target: T5, displayed FcCH3A, EW-RVT (K360E/K409W), …; assay: as above
# [6] = target: T6, displayed FcCH3A, A107 (K370E/K409W), …; assay: as above
# [7] = target: T7, displayed FcCH3A, B121 (D399E/K409W), …; assay: as above
# [8] = target: the molecule itself; assay: HEK293-F co-expression, Protein A purification, non-reducing SDS-PAGE densitometry
# Source text: The CH3 domain mutant pair of the individual clones selected from the LibA2 and LibB2 libraries in Example 8 above was cloned into an animal cell expression vector so that the CH3A mutant was expressed into the scFv-FcCH3A format and the CH3B mutant was expressed into the FcCH3B format.
# The EW-RVT and A107_{w/oW-VT}, B168_{w/oW-VT} mutant pairs were used as control groups.
# [9] = target: the molecule itself; assay: as above; remark: listed apart in the source
# Source text: The pcDNA3.1 (+)-scFv-FcCH3A and pcDNA3.1 (+)-FcCH3B animal cell expression vectors that were constructed using the HEK293-F system (Invitrogen) were used to produce antibodies by transient transfection, and the heterodimer formation ability was compared. Specifically, a mixture of an expression vector and polyethylenimine (PEI) (Polyscience) was transfected into HEK293-F cells (Invitrogen) that were suspension-grown on a serum-free FreeStyle 293 expression medium (Invitrogen) in a shaking flask (Corning). When transfecting 30 ml of the mixture in the shaking flask, HEK293-F cells were seeded at a density of 1.0×10⁶ cell/ml in 30 ml of medium and cultured at 125 rpm and 8% CO₂. […] Then, the reacted mixed medium was added to 30 ml of the previously seeded cells and cultured at 125 rpm and 8% CO₂ for 6 days. The cell culture supernatant collected with reference to the standard protocol was applied to Protein A Sepharose column (GE healthcare), washed with PBS (pH 7.4). The antibody was eluted at pH 3.0 with 0.1 M glycine buffer and immediately neutralized with 1 M Tris buffer. The eluted antibody fraction was concentrated using an Amicon Ultra (MILLIPORE) centrifugal concentrator after the buffer was exchanged with PBS (pH 7.4) using a Dextran Desalting Column (Thermo Scientific Pierce). The purified antibody was quantified by BCA technique.
# The W-VT and EW-RVT mutants were used as control groups.
Binder,(FC)2 (homodimer)(%) [8],(Fc)2 (homodimer) (%) [9],other results
B1,–,–,binding result [1]: binds
B2,–,–,binding result [2]: binds
B3,–,–,binding result [3]: binds
B4,–,–,binding result [4]: binds
B5,–,–,binding result [5]: binds
B6,–,–,binding result [6]: binds
B7,–,–,binding result [7]: binds
B8,33.8%,–,–
B9,–,5.8%,–
B10,–,27.9%,–
B11,20.3%,–,–
B12,16.7%,–,–
B13,–,2.4%,–
B14,1.6%,1.6%,–
B15,6.9%,–,–
B16,11.9%,–,–
B17,–,13%,–
B18,–,21.1%,–
B19,–,25.2%,–
B20,–,14.6%,–
B21,20%,–,–
